According to publication PMC314469, “Protein Interaction Networks by Proteome Peptide Scanning” (PLoS Biology, 2004):

T1: Yhr016c SH3 (YSC84_YEAST), P32793
T1 chain: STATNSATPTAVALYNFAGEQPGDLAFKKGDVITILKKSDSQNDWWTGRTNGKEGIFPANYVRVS

T2: Boi2 SH3 (BOI2_YEAST), P39969
T2 chain: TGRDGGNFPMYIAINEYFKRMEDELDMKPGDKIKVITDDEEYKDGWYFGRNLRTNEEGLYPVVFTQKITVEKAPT

T3: Yfr024 SH3 (LSB3_YEAST), P43603
T3 chain: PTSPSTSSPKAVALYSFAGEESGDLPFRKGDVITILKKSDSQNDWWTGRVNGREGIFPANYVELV

T4: Rvs167 SH3 (RV167_YEAST), P39743
T4 chain: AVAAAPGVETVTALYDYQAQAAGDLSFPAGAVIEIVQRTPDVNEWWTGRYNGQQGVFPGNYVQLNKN

T5: Boi1 SH3 (BOI1_YEAST), P38041
T5 chain: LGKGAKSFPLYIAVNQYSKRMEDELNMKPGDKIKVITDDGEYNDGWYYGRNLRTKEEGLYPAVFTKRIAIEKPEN

T6: Myo5 SH3 (MYO5_YEAST), Q04439
T6 chain: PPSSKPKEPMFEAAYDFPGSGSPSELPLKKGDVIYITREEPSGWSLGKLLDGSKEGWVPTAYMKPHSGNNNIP


Key:
Experiment in all cases: SPOT array
[1] = target: T1, Yhr016c SH3 (YSC84_YEAST), P32793
[2] = target: Sho1 SH3 (SHO1_YEAST), P40073
[3] = target: T2, Boi2 SH3 (BOI2_YEAST), P39969
[4] = target: T3, Yfr024 SH3 (LSB3_YEAST), P43603
[5] = target: T4, Rvs167 SH3 (RV167_YEAST), P39743
[6] = target: T5, Boi1 SH3 (BOI1_YEAST), P38041
[7] = target: T6, Myo5 SH3 (MYO5_YEAST), Q04439

Chain of Sho1 SH3 (SHO1_YEAST), P40073 (P40073 295-366): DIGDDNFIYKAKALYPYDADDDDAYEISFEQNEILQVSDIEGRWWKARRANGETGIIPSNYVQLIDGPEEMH

Binder	normalised SPOT signal, Boehringer light units (BLU); mean over the file's lines of this peptide [1]	normalised SPOT signal, Boehringer light units (BLU); mean over the file's lines of this peptide [2]	normalised SPOT signal, Boehringer light units (BLU); mean over the file's lines of this peptide [3]	normalised SPOT signal, Boehringer light units (BLU); mean over the file's lines of this peptide [4]	normalised SPOT signal, Boehringer light units (BLU); mean over the file's lines of this peptide [5]	normalised SPOT signal, Boehringer light units (BLU); mean over the file's lines of this peptide [6]	normalised SPOT signal, Boehringer light units (BLU); mean over the file's lines of this peptide [7]
RMQQKNSPAFPTHS [YGR056W 183-196]	1510	1220	227	4550	1150	4830	1280
RIRDKSKPSSPTAT [YDR474C 379-392]	46.3	169	3.1	592	55.6	1510	547
RLVSKYRPNSPIIL [YAL038W 409-422]	108	42.5	74	565	233	246	286
RLPSKTDPLDPHIK [YML050W 46-59]	29.3	47.9	28	66.3	110	326	129
RLVNKLLPPHPFAD [YGL143C 139-152]	24.8	20300	28.5	187	144	440	289
RKSDKNAPSVPQVD [YJL117W 12-25]	50.6	89.7	-0	13.7	40.6	1390	395
REYIKSLPMYPAAP [YBL016W 257-270]	48	5160	83.3	102	101	150	70.4
RGWQRFLPTGPIAH [YGR255C 239-252]	597	479	120	2080	562	95.9	802
RLLFRSLPPHPASL [YCR022C 77-90]	1600	571	67.2	3510	587	465	746

More lines, now with the values ahead:

normalised SPOT signal, Boehringer light units (BLU); mean over the file's lines of this peptide [1]	normalised SPOT signal, Boehringer light units (BLU); mean over the file's lines of this peptide [2]	normalised SPOT signal, Boehringer light units (BLU); mean over the file's lines of this peptide [3]	normalised SPOT signal, Boehringer light units (BLU); mean over the file's lines of this peptide [4]	normalised SPOT signal, Boehringer light units (BLU); mean over the file's lines of this peptide [5]	normalised SPOT signal, Boehringer light units (BLU); mean over the file's lines of this peptide [6]	normalised SPOT signal, Boehringer light units (BLU); mean over the file's lines of this peptide [7]	Binder
970	177	1230	4260	1610	487	279	RFWTRARPIDPNAY [YNL317W 375-388]
36.3	27.8	11.9	184	30.2	3920	188	REGPKSSPRGPLSP [YPR107C 40-53]
245	41.8	50.1	519	1120	718	337	RLLSKYRPSSPIIL [YOR347C 411-424]
17.7	175	22.2	304	56.3	341	1940	RHSKKPAPPPPGMQ [YMR109W 1006-1019]
65.9	166	40.3	296	133	375	403	RLIKRLKPPAPKEP [YML127W 362-375]
0	45.2	0	92	86.7	0	171	RDDVKRTPFIPESV [YPL093W 369-382]
184	124	54.1	2420	774	2030	564	RFSSRRAPIAPSGK [YMR031W-A 89-102]
